How the values were obtained:
[1] = molecular target: Medicago truncatula fatty acid amide hydrolase 2a (MtFAAH2a) (Medicago truncatula); test: SEC; Superdex 200 Increase 10/300 GL; buffers at pH 7.5, 0.06% DDM; mass interpolated from Kav against standards, mean elution volume of six purifications, DDM micelle (about 70 kDa) taken into account
[2] = molecular target: Medicago truncatula fatty acid amide hydrolase 1 (MtFAAH1) (Medicago truncatula); test: SEC; Superdex 200 Increase 10/300 GL; 50 mM Bis-Tris-Propane pH 9.0, 100 mM NaCl, 0.03% DDM; mass interpolated from Kav against standards, mean elution volume of six purifications, DDM micelle (about 70 kDa) taken into account
[3] = substrate: C/C=C/C=C\CC/C=C/C(=O)NCC(C)C; test: fluorescamine assay of released amine, Michaelis-Menten fit; assay type: biochemical, Medicago truncatula; conditions: 100 mM NaCl, 30 °C, apparent
[4] = substrate: CCCCC/C=C\C/C=C\CCCCCCCC(=O)NCCO; test: as above; assay type: biochemical, Medicago truncatula; conditions: 100 mM NaCl, 30 °C, apparent
[5] = substrate: CCCCC/C=C\C=C\C(O)CCCCCCCC(=O)NCCO; test: as above; assay type: biochemical, Medicago truncatula; conditions: 100 mM NaCl, 30 °C, apparent
[6] = substrate: CCCCCCCCCC(=O)CC(=O)N[C@H]1CCOC1=O; test: as above; assay type: biochemical, Medicago truncatula; conditions: 100 mM NaCl, 30 °C, apparent
[7] = substrate: CCCCCCCCCCCC(=O)CC(=O)N[C@H]1CCOC1=O; test: as above; assay type: biochemical, Medicago truncatula; conditions: 100 mM NaCl, 30 °C, apparent
[8] = substrate: CCCCCCCCCCCC(=O)NCCO; test: as above; assay type: biochemical, Medicago truncatula; conditions: 100 mM NaCl, 30 °C, apparent
[9] = substrate: O=C(/C=C/c1ccc(O)cc1)NCCc1ccc(O)cc1; test: as above; assay type: biochemical, Medicago truncatula; conditions: 100 mM NaCl, 30 °C, apparent
[10] = substrate: O=C(/C=C/c1ccc(O)cc1)N[C@H]1CCOC1=O; test: as above; assay type: biochemical, Medicago truncatula; conditions: 100 mM NaCl, 30 °C, apparent
[11] = molecular target: the molecule itself; test: SEC; AtFAAH run as reference for the MtFAAH calculations, in solution with detergent; its conditions are not told in the text (Supplementary Fig. S13)

How did the stoichiometry N [1] turn out when “Medicago truncatula fatty acid amide hydrolase 2a (MtFAAH2a) (enzyme)” was run?
Its stoichiometry N is 4.

How did the stoichiometry N [2] turn out when “Medicago truncatula fatty acid amide hydrolase 1 (MtFAAH1) (enzyme)” was run?
The stoichiometry N was 4.

B1: MtFAAH1 (Medicago truncatula) (protein)
chain: MGKKRVMVPAKDVDLSSIKYEPEIVQAPHLTGFWFRFFVRLIEAPLIGPFLLTMLKKENKIDQLLRNTVFPEEPMFKPEYPPQEKEHSVVELDEDGRPEGRVESALNCLPHYDPAKLWENSSATFRYWKIRDYAYAYQSRKVTPSMVAESIISMIEENGIDKPPTPLLLSFDAAEVRKQAAASTQRFESGNPLSILDGIFIAIKDDIDCHPHPSTGGSTWMHEVRDVKKDAVCVSRLRSCGVIFIGKTNMHEFGMGTTGNNSNYGTARNPHAPDRYTGGSSSGPAAIVASGLCSAALGTDGGGSVRIPSSLCGVVGLKINYGRTSMEGSLCDSGTVEVIGPIASTVEDAMLVYAAMLGASPANRISMKPSTPCLPTLSSDDDTDALRSLRIGIYTPWFNNVHSTEVSDKCEDALNLLSKAHGCEVVEVVIPEIVEMRTAHLVSIGSECLSSLNPDIEDGKGVKLSYDTRTSLALFQSFTAADYVAAQCIRRRIMHYFMEIFKKVDVIVTPTTGMTAPRIPPSALKSGETDMPTTGYLMRFVVPANLLGLPAISVPVGYDKEGLPIGLQVIGRPWAEATILRVAAAVEKLCGESKRRPVTYYDVLGAN
notes: full-length CDS from A17 stem cDNA; C-terminal c-myc and 6xHis tags (pTrcHIS2), E. coli BL21(DE3); estimated homotetramer in DDM; catalytic Ser304
Which results are given for B1?
Km ([3]; pH 9, 25 mM HEPES, 0.03% DDM): 6.81 ± 2.6 µM; kcat ([3]; pH 9, 25 mM HEPES, 0.03% DDM): 0.32 s⁻¹; Km ([4]; pH 9, 25 mM HEPES, 0.03% DDM): 4.83 ± 0.6 µM; kcat ([4]; pH 9, 25 mM HEPES, 0.03% DDM): 1.05 s⁻¹; Km ([5]; pH 9, 25 mM HEPES, 0.03% DDM): 5.00 ± 0.4 µM; kcat ([5]; pH 9, 25 mM HEPES, 0.03% DDM): 1.25 s⁻¹; Km ([6]; pH 9, 25 mM HEPES, 0.03% DDM): 5.33 ± 0.6 µM; kcat ([6]; pH 9, 25 mM HEPES, 0.03% DDM): 0.87 s⁻¹; Km ([7]; pH 9, 25 mM HEPES, 0.03% DDM): 5.60 ± 0.6 µM; kcat ([7]; pH 9, 25 mM HEPES, 0.03% DDM): 0.79 s⁻¹; Km ([8]; pH 9, 25 mM HEPES, 0.03% DDM): 13.9 ± 3.6 µM; kcat ([8]; pH 9, 25 mM HEPES, 0.03% DDM): 0.86 s⁻¹; Km ([9]; pH 9, 25 mM HEPES, 0.03% DDM): 25.9 ± 7.0 µM; kcat ([9]; pH 9, 25 mM HEPES, 0.03% DDM): 0.51 s⁻¹; Km ([10]; pH 9, 25 mM HEPES, 0.03% DDM): 10.2 ± 2.5 µM; kcat ([10]; pH 9, 25 mM HEPES, 0.03% DDM): 0.33 s⁻¹

B2: Arabidopsis thaliana fatty acid amide hydrolase (AtFAAH) (enzyme)
chain: MGKYQVMKRASEVDLSTVKYKAETMKAPHLTGLSFKLFVNLLEAPLIGSLIVDYLKKDNGMTKIFRNTVIPEEPMFRPEFPSQEPEHDVVIVGEDESPIDRLETALKCLPQYDPSRSLHADPVSSFRYWKIRDYAYAYRSKLTTPLQVAKRIISIIEEFGYDKPPTPFLIRFDANEVIKQAEASTRRFEQGNPISVLDGIFVTIKDDIDCLPHPTNGGTTWLHEDRSVEKDSAVVSKLRSCGAILLGKANMHELGMGTTGNNSNYGTTRNPHDPKRYTGGSSSGSAAIVAAGLCSAALGTDGGGSVRIPSALCGITGLKTTYGRTDMTGSLCEGGTVEIIGPLASSLEDAFLVYAAILGSSSADRYNLKPSPPCFPKLLSHNGSNAIGSLRLGKYTKWFNDVSSSDISDKCEDILKLLSNNHGCKVVEIVVPELEEMRAAHVISIGSPTLSSLTPYCEAGKNSKLSYDTRTSFAIFRSFSASDYIAAQCLRRRLMEYHLNIFKDVDVIVTPTTGMTAPVIPPDALKNGETNIQVTTDLMRFVLAANLLGFPAISVPVGYDKEGLPIGLQIMGRPWAEATVLGLAAAVEELAPVTKKPAIFYDILNTN
notes: AtFAAH, fatty acid amide hydrolase (a FAAH1 enzyme), Arabidopsis thaliana; also called A. thaliana FAAH; AtFAAH1; source: recombinant, purified
B2 was tested. Which “stoichiometry N” value [11] did it give?
Its value is 2.

B3: MtFAAH2a (Medicago truncatula) (protein)
chain: MGLFKSKRVVYKPVKDVNLGPDSTEFYLQANVKAPRMTGILVKIVAWLLECRIIGAFLLYILKGNNLIHKYITNADIEEPPLYVPLHHFEDHKEQEVKSLDLALTPPDKVQVAIDCLPTTLQRPINGTKPSFNRWTIMDYFRAYSSGDITPHMVAERFIAAVDESSKPTLQMGFFINYNVEDILRQANESTLRYQKGEPISVLDGVPVAIKDEIDCLPYPTTGGTKWLHKQRPCTDDACCIKRLRLCGAVLVGKTNMHELGAGTSGINPHYGATRNPHNASRIAGGSSSGSAAVVSAGLCPVALGVDGGGSVRMPAALCGIVGLKPTFSRIPHSGVIPLNWTVGMVGILAGTVEDSLITYAAISGEIPSRQPSSIPAKINLPLLPLTKSISKIKLAKYGKWFDDCSDDVRICCSGALNKLQGHYGWKIVDVTIPEIEVMRLAHYSTIGSECNTSLDYFQDKNLADFGWDARVALKIYGSFSSMEYIKAQKIRNRQLQFHKKIFSEADIIVSPTTGVTAYPIQDDALKTGELDYVNGAALIRYSIAGNFLGLPAVTVPVGYDKLGLPIGLQFIGRPWAEATLIHLAFAMQTICLSEYRKPAIFYDLLRTN
notes: full-length synthesized CDS (GENEWIZ) subcloned in pTrcHIS2, C-terminal c-myc and 6xHis tags, E. coli; estimated homotetramer in DDM; catalytic Ser311
Which Km ([3]; pH 7.5, 25 mM HEPES, 0.06% DDM) does the source give for B3 here?
Its Km is 7.64 ± 1.5 µM.

And the kcat ([3]; pH 7.5, 25 mM HEPES, 0.06% DDM)?
The kcat was 1.28 s⁻¹.

What about the Km ([4]; pH 7.5, 25 mM HEPES, 0.06% DDM) of the same molecule?
The Km was 15.1 ± 2.9 µM.

And the kcat ([4]; pH 7.5, 25 mM HEPES, 0.06% DDM)?
The kcat was 0.60 s⁻¹.

What about the Km ([5]; pH 7.5, 25 mM HEPES, 0.06% DDM) of the same molecule?
Its Km is 18.7 ± 2.9 µM.

And the kcat ([5]; pH 7.5, 25 mM HEPES, 0.06% DDM)?
Its kcat is 0.35 s⁻¹.

And the Km ([6]; pH 7.5, 25 mM HEPES, 0.06% DDM)?
Its Km is 13.2 ± 2.1 µM.

What about the kcat ([6]; pH 7.5, 25 mM HEPES, 0.06% DDM) of the same molecule?
Its kcat is 1.11 s⁻¹.

What about the Km ([7]; pH 7.5, 25 mM HEPES, 0.06% DDM) of the same molecule?
The Km was 14.6 ± 1.7 µM.

And the kcat ([7]; pH 7.5, 25 mM HEPES, 0.06% DDM)?
Its kcat is 0.96 s⁻¹.

What about the Km ([8]; pH 7.5, 25 mM HEPES, 0.06% DDM) of the same molecule?
The Km was 13.8 ± 1.7 µM.

What about the kcat ([8]; pH 7.5, 25 mM HEPES, 0.06% DDM) of the same molecule?
The kcat was 1.26 s⁻¹.

And the Km ([9]; pH 7.5, 25 mM HEPES, 0.06% DDM)?
The Km was 10.8 ± 1.1 µM.

And the kcat ([9]; pH 7.5, 25 mM HEPES, 0.06% DDM)?
The kcat was 1.51 s⁻¹.

What about the Km ([10]; pH 7.5, 25 mM HEPES, 0.06% DDM) of the same molecule?
The Km was 13.8 ± 1.9 µM.

And the kcat ([10]; pH 7.5, 25 mM HEPES, 0.06% DDM)?
Its kcat is 1.64 s⁻¹.
